Measurements as given in paper PMC13246001, “Membrane binding controls the ATPase cycle and localization of MinD in Bacillus subtilis” (eLife, 2026).
Changes are numbered by the printed parent chain. Names and notes keep the numbering of the source.

Assays:
[1] = biological target: His-MinD (B. subtilis MinD, N-terminally His-tagged) (B. subtilis) (UniProt Q01464)
[2] = substrate: Nc1ncnc2c1ncn2[C@@H]1O[C@H](COP(=O)(O)OP(=O)(O)OP(=O)(O)O)[C@@H](O)[C@H]1O; assay: EnzChek phosphate release assay; format: biochemical, Bacillus subtilis; settings: 10 µM MinD, E. coli total lipid liposomes 0.2 mg/ml, Mg2+, 37 °C, HEPES-KOH pH 7.2 protein/liposome buffer
[3] = biological target: the molecule itself; assay: SEC; Superdex200 Increase 10/300 GL, 0.75 ml/min, buffer C (50 mM HEPES-KOH, 150 mM KCl, 10% glycerol, 0.1 mM EDTA, pH 7.2) with 0.4 mM TCEP and 0.2 mM Mg2+-ADP; column calibrated with a gel filtration standard

Molecule: His-PDZ (soluble C-terminal PDZ domain of B. subtilis MinJ with N-terminal His-tag) (from UniProt O34375 1-397) (domain or fragment)
- relative ATPase activity (EnzChek phosphate release) of 6 µM His-MinD in the presence of 1, 3 and 5 µM His-PDZ, 0.2 mg/ml liposomes, 2 mM Mg2+-ATP; His-MinD alone = 1; highest value at 3 µM (relative activity) [1]: 1.37

B1: His-MinD (Bacillus subtilis subsp. subtilis str. 168) (protein)
chain: MGEAIVITSGKGGVGKTTTSANLGTALAILGKRVCLVDTDIGLRNLDVVMGLENRIIYDLVDVVEGRCKMHQALVKDKRFDDLLYLMPAAQTSDKTAVAPEQIKNMVQELKQEFDYVIIDCPAGIEQGYKNAVSGADKAIVVTTPEISAVRDADRIIGLLEQEENIEPPRLVVNRIRNHLMKNGDTMDIDEIVQHLSIDLLGIVADDDEVIKASNHGEPIAMDPKNRASIAYRNIARRILGESVPLQVLEEQNKGMMAKIKSFFGVRS
notes: full-length MinD, N-terminal His-tag kept (pET-28a NdeI/XhoI, plasmid NAP013), expressed in E. coli BL21(DE3)pLysS; monomer in ADP, dimerizes in ATPase cycle
- Km [2]: 173 µM
- kcat [2]: 0.01008 s⁻¹

B2: His-MinD-D40A (enzyme, B. subtilis, UniProt Q01464 1-268, looked up)
chain: B1 chain with D40A
notes: MinD of Bacillus subtilis 168 with D40A, made by site-directed mutagenesis of plasmid NAP013 (pET-28a-minD); Same construct as m1 but for the mutation; also called locked dimer; pET-28a-minD-D40A; source: E. coli BL21(DE3)/pLysS, purified (Ni-NTA, SEC) with Mg2+-ADP in the buffers; not shown: His-tag, N-terminal, kept
- binding result [3]: binds
